Experiment [1] concerns the target T1, recombinant KIT D4/D5 polypeptide (D4/D5 region of human KIT, V308 to H515, with 5xHis tag) (human, UniProt P10721 26-519).
T1 construct: The end residue 246 was computed from the stated composition (33 + 208 + 5); This is the glycosylated (untreated) form; also called KIT D4/D5 antigen; KIT immunogen
The experiment in a line: competition solid phase ELISA on KIT D4/D5 antigen; reference 37M titrated alone, no competitor. For orientation: An ELISA detects its analyte on a solid surface through an enzyme-linked reagent.

For experiment [2], the target named is T2, recombinant D4 domain polypeptide of human KIT (V308 to K412, with 6xHis tag) (human, UniProt P10721 26-412).
T2 construct: The end residue 144 was computed (33 + 105 + 6); also called D4 region; D4 domain of human KIT
The experiment in a line: solid phase ELISA, antigen coated on plate; D4 region alone.

Experiment [3] has as its target full-length, wild-type human KIT (human, UniProt P10721 26-976). The experiment in a line: cell-based or functional assay.
For experiment [4], the target named is T1, recombinant KIT D4/D5 polypeptide …. The experiment in a line: competition solid phase ELISA on KIT D4/D5 antigen; reference 37M titrated with competitor antibody 37C at 10 nM.
The target of experiment [5] is T3, recombinant D5 domain polypeptide of human KIT (N410 to H515, with 5xHis tag) (human, UniProt P10721 26-519).
T3 construct: The end residue 144 was computed (33 + 106 + 5); also called D5 region; D5 domain of human KIT
The experiment in a line: solid phase ELISA, D5 antigen coated on the plate.

Some results are limits rather than exact numbers.

Broadly, the EC50 is the concentration that produces a half-maximal response.

full-length, wild-type human KIT, sequence (P10721 other isoform, or with tags, fused parts or gaps limits assumed): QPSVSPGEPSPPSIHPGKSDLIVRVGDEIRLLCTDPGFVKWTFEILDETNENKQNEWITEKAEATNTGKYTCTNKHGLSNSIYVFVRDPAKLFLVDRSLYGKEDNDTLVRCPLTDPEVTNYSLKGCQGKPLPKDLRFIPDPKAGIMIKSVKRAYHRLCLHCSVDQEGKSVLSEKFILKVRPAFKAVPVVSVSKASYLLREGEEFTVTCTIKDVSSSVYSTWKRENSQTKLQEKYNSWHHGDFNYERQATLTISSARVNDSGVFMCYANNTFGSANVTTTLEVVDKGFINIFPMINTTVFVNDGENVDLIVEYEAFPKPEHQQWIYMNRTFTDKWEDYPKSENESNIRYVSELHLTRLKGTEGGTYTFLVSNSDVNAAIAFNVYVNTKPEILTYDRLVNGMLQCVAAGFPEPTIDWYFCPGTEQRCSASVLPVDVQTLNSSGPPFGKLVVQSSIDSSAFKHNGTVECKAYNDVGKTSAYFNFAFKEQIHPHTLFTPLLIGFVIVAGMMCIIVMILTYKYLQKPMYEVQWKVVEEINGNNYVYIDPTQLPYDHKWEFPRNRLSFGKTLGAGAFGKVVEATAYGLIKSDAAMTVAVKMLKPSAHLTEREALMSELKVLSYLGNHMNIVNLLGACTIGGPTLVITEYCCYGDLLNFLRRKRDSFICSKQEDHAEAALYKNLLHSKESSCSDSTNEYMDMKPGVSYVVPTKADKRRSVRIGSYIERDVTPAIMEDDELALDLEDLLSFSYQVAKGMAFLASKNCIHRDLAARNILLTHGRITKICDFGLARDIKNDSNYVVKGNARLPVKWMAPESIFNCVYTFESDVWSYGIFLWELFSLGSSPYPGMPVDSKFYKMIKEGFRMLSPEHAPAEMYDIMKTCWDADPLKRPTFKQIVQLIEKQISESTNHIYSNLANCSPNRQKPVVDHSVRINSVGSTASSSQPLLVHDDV
T1 sequence (P10721 other isoform, or with tags, fused parts or gaps): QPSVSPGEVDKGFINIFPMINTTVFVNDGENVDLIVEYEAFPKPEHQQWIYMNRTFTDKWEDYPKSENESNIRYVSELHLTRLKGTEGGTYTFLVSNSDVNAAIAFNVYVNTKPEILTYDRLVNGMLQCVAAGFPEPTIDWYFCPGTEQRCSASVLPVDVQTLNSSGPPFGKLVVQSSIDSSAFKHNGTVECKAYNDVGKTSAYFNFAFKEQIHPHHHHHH
T3 sequence (P10721 other isoform, or with tags, fused parts or gaps): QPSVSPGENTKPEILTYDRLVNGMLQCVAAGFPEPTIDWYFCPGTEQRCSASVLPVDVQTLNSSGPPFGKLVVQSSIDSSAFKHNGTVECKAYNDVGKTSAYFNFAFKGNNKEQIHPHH
T2 sequence (P10721 other isoform, or with tags, fused parts or gaps): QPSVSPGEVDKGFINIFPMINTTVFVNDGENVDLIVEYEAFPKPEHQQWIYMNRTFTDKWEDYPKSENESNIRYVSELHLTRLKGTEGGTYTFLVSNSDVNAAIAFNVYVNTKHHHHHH

B1: antibody 37M (antibody, V domains shown)
VH: QVQLKQSGAELVRPGASVKLSCKASGYTFTDYYINWVKQRPGQGLEWIARIYPGSGNTYYNEKFKGKATLTAEKSSSTAYMQLSSLTSEDSAVYFCARGVYYFDYWGQGTTLTVSS
VL: DIVMTQSQKFMSTSVGDRVSVTCKASQNVRTNVAWYQQKPGQSPKALIYSASYRYSGVPDRFTGSGSGTDFTLTISNVQSEDLADYFCQQYNSYPRTFGGGTKLEIKR
notes: also called anti-KIT antibody 37M; 37M antibody
With B1, the half-maximal effective concentration (EC50) is 0.115 nM in experiment [1], ~0.572 nM in experiment [2], 2.8 nM in experiment [4] and > 3000 nM in experiment [5]. The “50% inhibition concentration (IC50) of SCF-induced KIT tyrosine phosphorylation, cell-based phospho-KIT assay, CHO/KIT-WT cells” value in experiment [3] was ~0.109 nM. Besides, the “IC50 of SCF-induced AKT phosphorylation (phospho-AKT assay), sorted CHO/KIT-WT cells” value in experiment [3] was ~0.138 nM. Besides, the “IC50 of SCF-induced KIT tyrosine phosphorylation, separate experiment (FIG. 11A), CHO/KIT-WT cells” value in experiment [3] was ~0.096 nM.

The values are drawn from US20190100598A1 (CELLDEX THERAPEUTICS, published 2019).
